Patent US20260146077A1 (US Dept. of Health and Human Services, published 2026)
Positions count from the first letter of the chain named. Like-named read-outs stand apart in the source and are kept apart here.

Legend:
Assay in all cases: cell-based or functional assay
[1] = biological target: T1, SARS-CoV-2 spike protein, B.1.617.2 (SARS-CoV-2, UniProt P0DTC2 14-1273)
[2] = biological target: T2, SARS-CoV-2 spike protein, B.1.351 (SARS-CoV-2, UniProt P0DTC2 14-1273)
[3] = biological target: T3, SARS-CoV-2 spike protein, BA.1 (SARS-CoV-2, UniProt P0DTC2 14-1273)
[4] = biological target: T3, SARS-CoV-2 spike protein, BA.1; remark: listed apart in the source
[5] = biological target: T1, SARS-CoV-2 spike protein, B.1.617.2; remark: listed apart in the source
[6] = biological target: T2, SARS-CoV-2 spike protein, B.1.351; remark: listed apart in the source
[7] = biological target: T3, SARS-CoV-2 spike protein, BA.1; remark: listed apart in the source
[8] = biological target: SARS-CoV-2 spike protein, BA.2 (SARS-CoV-2, UniProt P0DTC2 14-1273)
[9] = biological target: SARS-CoV-2 spike protein, BA.2.12.1 (SARS-CoV-2, UniProt P0DTC2 14-1273)
[10] = biological target: SARS-CoV-2 spike protein, BA.1.1 (SARS-CoV-2, UniProt P0DTC2 14-1273)

B1: B1-182.1HC/182.1LC_95LTG (antibody, V domains shown)
VH: not shown
VL: EIVLTQSPGTLSLSPGERATLSCRASQSVSSSYLAWYQQKPGQAPRLLIYGASSRATGFPDRFSGSGSGTDFTLTISRLEPEDFAVYYCQQYGNLTGWTFGQGTKVEIR
[1]
  neutralization IC50: 0.0068 µg/mL
  neutralization IC80: 0.0151 µg/mL
[2]
  neutralization IC50: 0.0072 µg/mL
  neutralization IC80: 0.014 µg/mL
[3]
  neutralization IC50: 0.0206 µg/mL
  neutralization IC80: 0.118 µg/mL
[4]
  BA.1 neutralization, fold improvement over B1-182.1: > 9 fold

B2: A23-58.1HC/58.1LC_96TG (antibody, V domains shown)
VH: not shown
VL: B1 VL with G51S, F59I, Y88F, N94T, L95S, R109K
[4]
  BA.1 neutralization, fold improvement over A19-58.1: > 3 fold
[5]
  neutralization IC50: 0.0054 µg/mL
  neutralization IC80: 0.0131 µg/mL
[6]
  neutralization IC50: 0.0027 µg/mL
  neutralization IC80: 0.0066 µg/mL
[7]
  neutralization IC50: 0.0294 µg/mL
  neutralization IC80: 0.0658 µg/mL

B3: B1-182.1HC/182.1LC_94GLTG (antibody, V domains shown)
VH: not shown
VL: B1 VL with N94G
[1]
  neutralization IC50: 0.0041 µg/mL
  neutralization IC80: 0.0086 µg/mL
[2]
  neutralization IC50: 0.0023 µg/mL
  neutralization IC80: 0.0063 µg/mL
[3]
  neutralization IC50: 0.0142 µg/mL
  neutralization IC80: 0.0623 µg/mL
[4]
  BA.1 neutralization, fold improvement over B1-182.1: > 13 fold

B4: A23-58.1HC/58.1LC_95LTG (antibody, V domains shown)
VH: not shown
VL: B1 VL with G51S, F59I, Y88F, N94T, R109K
[4]
  BA.1 neutralization, fold improvement over A19-58.1: 5 fold
[5]
  neutralization IC50: 0.0028 µg/mL
  neutralization IC80: 0.0116 µg/mL
[6]
  neutralization IC50: 0.0035 µg/mL
  neutralization IC80: 0.0091 µg/mL
[7]
  neutralization IC50: 0.0214 µg/mL
  neutralization IC80: 0.0454 µg/mL

B5: B1-182.1HC/S2E12LC (antibody, V domains shown)
VH: not shown
VL: B1 VL with E1D, S7T, F59I, G93V, N94G, R109K
[8]
  neutralization IC50: 0.0063 µg/mL
  neutralization IC80: 0.028 µg/mL
[9]
  neutralization IC50: 0.0115 µg/mL
  neutralization IC80: 0.035 µg/mL
[4]
  BA.1 neutralization, fold improvement over B1-182.1: 20 fold
[5]
  neutralization IC50: 0.0011 µg/mL
  neutralization IC80: 0.0029 µg/mL
[6]
  neutralization IC50: 0.0008 µg/mL
  neutralization IC80: 0.0044 µg/mL
[10]
  neutralization IC50: 0.0047 µg/mL
  neutralization IC80: 0.0242 µg/mL
[7]
  neutralization IC50: 0.0099 µg/mL
  neutralization IC80: 0.0452 µg/mL

B6: A23-58.1HC/58.1LC_F88Y-94GLTG (antibody, V domains shown)
VH: not shown
VL: B1 VL with G51S, F59I, N94G, R109K
[9]
  neutralization IC50: 0.0417 µg/mL
  neutralization IC80: 0.0956 µg/mL
[4]
  BA.1 neutralization, fold improvement over A19-58.1: > 3 fold
[5]
  neutralization IC50: 0.0063 µg/mL
  neutralization IC80: 0.0188 µg/mL
[6]
  neutralization IC50: 0.0044 µg/mL
  neutralization IC80: 0.0116 µg/mL
[7]
  neutralization IC50: 0.0261 µg/mL
  neutralization IC80: 0.0919 µg/mL

B7: A23-58.1HC/58.1LC_F88Y-93VGLTG (antibody, V domains shown)
VH: not shown
VL: B1 VL with G51S, F59I, G93V, N94G, R109K
[9]
  neutralization IC50: 0.0099 µg/mL
  neutralization IC80: 0.0422 µg/mL
[4]
  BA.1 neutralization, fold improvement over A19-58.1: > 10 fold
[5]
  neutralization IC50: 0.006 µg/mL
  neutralization IC80: 0.0162 µg/mL
[6]
  neutralization IC50: 0.0023 µg/mL
  neutralization IC80: 0.0088 µg/mL
[7]
  neutralization IC50: 0.0093 µg/mL
  neutralization IC80: 0.0426 µg/mL

B8: A23-58.1HC/58.1LC_96+G (antibody, V domains shown)
VH: not shown
VL: B1 VL with G51S, F59I, Y88F, N94T, L95S, T96P, R109K
[5]
  neutralization IC50: 0.0046 µg/mL
  neutralization IC80: 0.0112 µg/mL
[6]
  neutralization IC50: 0.0105 µg/mL
  neutralization IC80: 0.0292 µg/mL
[7]
  neutralization IC50: 0.133 µg/mL
  neutralization IC80: 0.917 µg/mL

B9: B1-182.1HC_F100cS/182.1LC_93VGLTG (antibody, V domains shown)
VH: not shown
VL: B1 VL with G93V, N94G
[3]
  neutralization IC80: 0.0909 µg/mL
[4]
  BA.1 neutralization, fold improvement over B1-182.1: > 9 fold
  pseudovirus neutralization IC50: 0.0228 µg/mL

B10: B1-182.1HC_F100cS/S2E12LC (antibody, V domains shown)
VH: not shown
VL: B1 VL with E1D, S7T, F59I, G93V, N94G, R109K
[8]
  neutralization IC50: 0.0094 µg/mL
  neutralization IC80: 0.0317 µg/mL
[9]
  neutralization IC50: 0.0149 µg/mL
  neutralization IC80: 0.0542 µg/mL
[4]
  BA.1 neutralization, fold improvement over B1-182.1: > 14 fold
[5]
  neutralization IC50: 0.0012 µg/mL
  neutralization IC80: 0.0033 µg/mL
[6]
  neutralization IC50: 0.0015 µg/mL
  neutralization IC80: 0.0044 µg/mL
[10]
  neutralization IC50: 0.0084 µg/mL
  neutralization IC80: 0.02 µg/mL
[7]
  neutralization IC50: 0.0139 µg/mL
  neutralization IC80: 0.0516 µg/mL

B11: B1-182.1HC/182.1LC_96TG (antibody, V domains shown)
VH: not shown
VL: B1 VL with L95S
[1]
  neutralization IC50: 0.004 µg/mL
  neutralization IC80: 0.0084 µg/mL
[2]
  neutralization IC50: 0.0044 µg/mL
  neutralization IC80: 0.0143 µg/mL
[3]
  neutralization IC50: 0.0206 µg/mL
  neutralization IC80: 0.0857 µg/mL
[4]
  BA.1 neutralization, fold improvement over B1-182.1: > 9 fold

B12: A23-58.1HC_Y100cA/58.1LC_93VGLTG (antibody, V domains shown)
VH: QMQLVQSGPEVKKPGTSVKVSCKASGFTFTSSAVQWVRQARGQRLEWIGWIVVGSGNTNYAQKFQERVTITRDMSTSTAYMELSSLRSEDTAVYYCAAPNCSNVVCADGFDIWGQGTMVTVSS
VL: B1 VL with G51S, F59I, Y88F, G93V, N94G, R109K
[9]
  neutralization IC50: 0.0242 µg/mL
  neutralization IC80: 0.0621 µg/mL
[4]
  BA.1 neutralization, fold improvement over A19-58.1: > 6 fold
[5]
  neutralization IC50: 0.003 µg/mL
  neutralization IC80: 0.0098 µg/mL
[6]
  neutralization IC50: 0.0011 µg/mL
  neutralization IC80: 0.0043 µg/mL
[7]
  neutralization IC50: 0.0155 µg/mL
  neutralization IC80: 0.0419 µg/mL

B13: B1-182.1HC_F100cS/182.1LC_94GLTG (antibody, V domains shown)
VH: not shown
VL: B1 VL with N94G
[1]
  neutralization IC50: 0.0018 µg/mL
  neutralization IC80: 0.0052 µg/mL
[2]
  neutralization IC50: 0.0022 µg/mL
  neutralization IC80: 0.0049 µg/mL
[3]
  neutralization IC50: 0.0042 µg/mL
  neutralization IC80: 0.0167 µg/mL
[4]
  BA.1 neutralization, fold improvement over B1-182.1: > 46 fold

B14: A23-58.1HC_Y100cA/58.1LC_94GLTG (antibody, V domains shown)
VH: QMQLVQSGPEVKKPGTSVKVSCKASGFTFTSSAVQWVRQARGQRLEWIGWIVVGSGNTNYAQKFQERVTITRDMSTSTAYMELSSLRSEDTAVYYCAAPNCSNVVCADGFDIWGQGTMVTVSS
VL: B1 VL with G51S, F59I, Y88F, N94G, R109K
[9]
  neutralization IC50: 0.0193 µg/mL
  neutralization IC80: 0.051 µg/mL
[4]
  BA.1 neutralization, fold improvement over A19-58.1: > 25 fold
[5]
  neutralization IC50: 0.0131 µg/mL
  neutralization IC80: 0.0165 µg/mL
[6]
  neutralization IC50: 0.0023 µg/mL
  neutralization IC80: 0.0063 µg/mL
[7]
  neutralization IC50: 0.0038 µg/mL
  neutralization IC80: 0.016 µg/mL

B15: B1-182.1HC/182.1LC_93VGLTG (antibody, V domains shown)
VH: not shown
VL: B1 VL with G93V, N94G
[1]
  neutralization IC50: 0.0014 µg/mL
  neutralization IC80: 0.0059 µg/mL
[2]
  neutralization IC50: 0.0009 µg/mL
  neutralization IC80: 0.0044 µg/mL
[3]
  neutralization IC50: 0.0115 µg/mL
  neutralization IC80: 0.0396 µg/mL
[4]
  BA.1 neutralization, fold improvement over B1-182.1: > 17 fold

B16: A23-58.1HC_Y100cA/S2E12LC (antibody, V domains shown)
VH: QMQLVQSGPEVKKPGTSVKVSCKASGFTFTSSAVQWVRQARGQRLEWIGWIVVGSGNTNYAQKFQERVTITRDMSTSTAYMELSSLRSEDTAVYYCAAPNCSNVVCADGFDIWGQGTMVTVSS
VL: B1 VL with E1D, S7T, F59I, G93V, N94G, R109K
[8]
  neutralization IC50: 0.0084 µg/mL
  neutralization IC80: 0.0384 µg/mL
[9]
  neutralization IC50: 0.0351 µg/mL
  neutralization IC80: 0.142 µg/mL
[4]
  BA.1 neutralization, fold improvement over A19-58.1: 20 fold
[5]
  neutralization IC50: 0.0029 µg/mL
  neutralization IC80: 0.0078 µg/mL
[6]
  neutralization IC50: 0.0026 µg/mL
  neutralization IC80: 0.0059 µg/mL
[10]
  neutralization IC50: 0.0044 µg/mL
  neutralization IC80: 0.0131 µg/mL
[7]
  neutralization IC50: 0.0049 µg/mL
  neutralization IC80: 0.0261 µg/mL

B17: A23-58.1HC/S2E12LC (antibody, V domains shown)
VH: not shown
VL: B1 VL with E1D, S7T, F59I, G93V, N94G, R109K
[8]
  neutralization IC50: 0.0067 µg/mL
  neutralization IC80: 0.0269 µg/mL
[9]
  neutralization IC50: 0.0566 µg/mL
  neutralization IC80: 0.201 µg/mL
[4]
  BA.1 neutralization, fold improvement over A19-58.1: 10 fold
[5]
  neutralization IC50: 0.0022 µg/mL
  neutralization IC80: 0.0076 µg/mL
[6]
  neutralization IC50: 0.0035 µg/mL
  neutralization IC80: 0.0079 µg/mL
[10]
  neutralization IC50: 0.0038 µg/mL
  neutralization IC80: 0.0158 µg/mL
[7]
  neutralization IC50: 0.0098 µg/mL
  neutralization IC80: 0.0311 µg/mL

B18: A23-58.1HC/58.1LC_93VGLT (antibody, V domains shown)
VH: not shown
VL: EIVLTQSPGTLSLSPGERATLSCRASQSVSSSYLAWYQQKPGQAPRLLIYSASSRATGIPDRFSGSGSGTDFTLTISRLEPEDFAVYFCQQYVGLTWTFGQGTKVEIK
[9]
  neutralization IC50: 0.0091 µg/mL
  neutralization IC80: 0.0431 µg/mL
[4]
  BA.1 neutralization, fold improvement over A19-58.1: > 20 fold
[5]
  neutralization IC50: 0.0009 µg/mL
  neutralization IC80: 0.0024 µg/mL
[6]
  neutralization IC50: 0.001 µg/mL
  neutralization IC80: 0.0032 µg/mL
[7]
  neutralization IC50: 0.0048 µg/mL
  neutralization IC80: 0.0187 µg/mL

B19: A23-58.1HC_Y100cA/58.1LC_93VGLT (antibody, V domains shown)
VH: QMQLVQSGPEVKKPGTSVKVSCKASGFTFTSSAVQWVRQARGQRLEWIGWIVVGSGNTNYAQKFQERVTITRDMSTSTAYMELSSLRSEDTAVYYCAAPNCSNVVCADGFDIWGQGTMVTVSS
VL: B18 VL
[9]
  neutralization IC50: 0.48 µg/mL
  neutralization IC80: 2.05 µg/mL
[7]
  neutralization IC50: 0.306 µg/mL
  neutralization IC80: 2.54 µg/mL

B20: B1-182.1HC/182.1LC_93VGLT (antibody, V domains shown)
VH: not shown
VL: B18 VL with S51G, I59F, F88Y, K108R
[3]
  neutralization IC50: 0.297 µg/mL
  neutralization IC80: 3.19 µg/mL
